{"source": "the supplement of paper PMC10567573", "parents": {"B1": {"name": "DVL3 (parent)", "chain": "YNPHPGFPELGYSYGGGSASSQHS"}}}
{"variants_of": "B1", "experiment": "protein stability index of a GFP-peptide fusion (GPS, HEK-293T) (PSI 1-6); higher = more stable", "conditions": "c terminus: a fixed tail appended"}
{"variant": "YNPHPGFPELGFSYGGGSASSQHS", "protein stability index": 3.09}
{"variant": "YNPHPGFPELGGSYGGGSASSQHS", "protein stability index": 3.51}
{"variant": "YNPHPGFPELGHSYGGGSASSQHS", "protein stability index": 3.26}
{"variant": "YNPHPGFPELGISYGGGSASSQHS", "protein stability index": 2.06}
{"variant": "YNPHPGFPELGKSYGGGSASSQHS", "protein stability index": 2.47}
{"variant": "YNPHPGFPELGLSYGGGSASSQHS", "protein stability index": 2.03}
{"variant": "YNPHPGFPELGMSYGGGSASSQHS", "protein stability index": 3.29}
{"variant": "YNPHPGFPELGNSYGGGSASSQHS", "protein stability index": 3.96}
{"variant": "YNPHPGFPELGPSYGGGSASSQHS", "protein stability index": 1.99}
{"variant": "YNPHPGFPELGQSYGGGSASSQHS", "protein stability index": 3.42}
{"variant": "YNPHPGFPELGRSYGGGSASSQHS", "protein stability index": 2.68}
{"variant": "YNPHPGFPELGSSYGGGSASSQHS", "protein stability index": 3.15}
{"variant": "YNPHPGFPELGTSYGGGSASSQHS", "protein stability index": 3.01}
{"variant": "YNPHPGFPELGVSYGGGSASSQHS", "protein stability index": 1.74}
{"variant": "YNPHPGFPELGWSYGGGSASSQHS", "protein stability index": 2.19}
{"variant": "YNPHPGFPELGYAYGGGSASSQHS", "protein stability index": 2.95}
{"variant": "YNPHPGFPELGYCYGGGSASSQHS", "protein stability index": 1.78}
{"variant": "YNPHPGFPELGYDYGGGSASSQHS", "protein stability index": 3.52}
{"variant": "YNPHPGFPELGYEYGGGSASSQHS", "protein stability index": 3.71}
{"variant": "YNPHPGFPELGYFYGGGSASSQHS", "protein stability index": 1.95}
{"variant": "YNPHPGFPELGYGYGGGSASSQHS", "protein stability index": 2.55}
{"variant": "YNPHPGFPELGYHYGGGSASSQHS", "protein stability index": 2.59}
{"variant": "YNPHPGFPELGYIYGGGSASSQHS", "protein stability index": 2.24}
{"variant": "YNPHPGFPELGYKYGGGSASSQHS", "protein stability index": 2.94}
{"variant": "YNPHPGFPELGYLYGGGSASSQHS", "protein stability index": 2.13}
{"variant": "YNPHPGFPELGYMYGGGSASSQHS", "protein stability index": 2.67}
{"variant": "YNPHPGFPELGYNYGGGSASSQHS", "protein stability index": 3.08}
{"variant": "YNPHPGFPELGYPYGGGSASSQHS", "protein stability index": 2.58}
{"variant": "YNPHPGFPELGYQYGGGSASSQHS", "protein stability index": 3}
{"variant": "YNPHPGFPELGYRYGGGSASSQHS", "protein stability index": 2.85}
{"variant": "YNPHPGFPELGYTYGGGSASSQHS", "protein stability index": 2.23}
{"variant": "YNPHPGFPELGYVYGGGSASSQHS", "protein stability index": 1.71}
{"variant": "YNPHPGFPELGYWYGGGSASSQHS", "protein stability index": 2.53}
{"variant": "YNPHPGFPELGYYYGGGSASSQHS", "protein stability index": 2.19}
{"variant": "YNPHPGFPELGYSAGGGSASSQHS", "protein stability index": 3.77}
{"variant": "YNPHPGFPELGYSCGGGSASSQHS", "protein stability index": 3.1}
{"variant": "YNPHPGFPELGYSDGGGSASSQHS", "protein stability index": 3.38}
{"variant": "YNPHPGFPELGYSEGGGSASSQHS", "protein stability index": 4.1}
{"variant": "YNPHPGFPELGYSFGGGSASSQHS", "protein stability index": 2.4}
{"variant": "YNPHPGFPELGYSGGGGSASSQHS", "protein stability index": 3.69}
{"variant": "YNPHPGFPELGYSHGGGSASSQHS", "protein stability index": 3.71}
{"variant": "YNPHPGFPELGYSIGGGSASSQHS", "protein stability index": 2.64}
{"variant": "YNPHPGFPELGYSKGGGSASSQHS", "protein stability index": 2.95}
{"variant": "YNPHPGFPELGYSLGGGSASSQHS", "protein stability index": 2.69}
{"variant": "YNPHPGFPELGYSMGGGSASSQHS", "protein stability index": 2.86}
{"variant": "YNPHPGFPELGYSNGGGSASSQHS", "protein stability index": 3.59}
{"variant": "YNPHPGFPELGYSPGGGSASSQHS", "protein stability index": 3.32}
{"variant": "YNPHPGFPELGYSQGGGSASSQHS", "protein stability index": 3.15}
{"variant": "YNPHPGFPELGYSRGGGSASSQHS", "protein stability index": 3.05}
{"variant": "YNPHPGFPELGYSSGGGSASSQHS", "protein stability index": 3.48}
{"variant": "YNPHPGFPELGYSTGGGSASSQHS", "protein stability index": 3.24}
{"variant": "YNPHPGFPELGYSVGGGSASSQHS", "protein stability index": 3.26}
{"variant": "YNPHPGFPELGYSWGGGSASSQHS", "protein stability index": 2.76}
{"variant": "YNPHPGFPELGYSYAGGSASSQHS", "protein stability index": 2.43}
{"variant": "YNPHPGFPELGYSYCGGSASSQHS", "protein stability index": 2.11}
{"variant": "YNPHPGFPELGYSYDGGSASSQHS", "protein stability index": 3.37}
{"variant": "YNPHPGFPELGYSYEGGSASSQHS", "protein stability index": 3.33}
{"variant": "YNPHPGFPELGYSYFGGSASSQHS", "protein stability index": 2.54}
{"variant": "YNPHPGFPELGYSYHGGSASSQHS", "protein stability index": 2.3}
{"variant": "YNPHPGFPELGYSYIGGSASSQHS", "protein stability index": 2.63}
{"variant": "YNPHPGFPELGYSYKGGSASSQHS", "protein stability index": 2.91}
{"variant": "YNPHPGFPELGYSYLGGSASSQHS", "protein stability index": 2.24}
{"variant": "YNPHPGFPELGYSYMGGSASSQHS", "protein stability index": 2.57}
{"variant": "YNPHPGFPELGYSYNGGSASSQHS", "protein stability index": 2.63}
{"variant": "YNPHPGFPELGYSYPGGSASSQHS", "protein stability index": 2.9}
{"variant": "YNPHPGFPELGYSYQGGSASSQHS", "protein stability index": 2.63}
{"variant": "YNPHPGFPELGYSYRGGSASSQHS", "protein stability index": 2.33}
{"variant": "YNPHPGFPELGYSYSGGSASSQHS", "protein stability index": 2.86}
{"variant": "YNPHPGFPELGYSYTGGSASSQHS", "protein stability index": 3.05}
{"variant": "YNPHPGFPELGYSYVGGSASSQHS", "protein stability index": 2.22}
{"variant": "YNPHPGFPELGYSYWGGSASSQHS", "protein stability index": 2.3}
{"variant": "YNPHPGFPELGYSYYGGSASSQHS", "protein stability index": 1.82}
{"variant": "YNPHPGFPELGYSYGAGSASSQHS", "protein stability index": 3.45}
{"variant": "YNPHPGFPELGYSYGCGSASSQHS", "protein stability index": 2.04}
{"variant": "YNPHPGFPELGYSYGDGSASSQHS", "protein stability index": 3.4}
{"variant": "YNPHPGFPELGYSYGEGSASSQHS", "protein stability index": 3.61}
{"variant": "YNPHPGFPELGYSYGFGSASSQHS", "protein stability index": 1.79}
{"variant": "YNPHPGFPELGYSYGHGSASSQHS", "protein stability index": 2.72}
{"variant": "YNPHPGFPELGYSYGIGSASSQHS", "protein stability index": 2}
{"variant": "YNPHPGFPELGYSYGKGSASSQHS", "protein stability index": 2.93}
{"variant": "YNPHPGFPELGYSYGLGSASSQHS", "protein stability index": 2.3}
{"variant": "YNPHPGFPELGYSYGMGSASSQHS", "protein stability index": 2.79}
{"variant": "YNPHPGFPELGYSYGNGSASSQHS", "protein stability index": 2.99}
{"variant": "YNPHPGFPELGYSYGPGSASSQHS", "protein stability index": 2.74}
{"variant": "YNPHPGFPELGYSYGQGSASSQHS", "protein stability index": 3.02}
{"variant": "YNPHPGFPELGYSYGRGSASSQHS", "protein stability index": 2.63}
{"variant": "YNPHPGFPELGYSYGSGSASSQHS", "protein stability index": 2.95}
{"variant": "YNPHPGFPELGYSYGTGSASSQHS", "protein stability index": 2.57}
{"variant": "YNPHPGFPELGYSYGVGSASSQHS", "protein stability index": 1.89}
{"variant": "YNPHPGFPELGYSYGWGSASSQHS", "protein stability index": 2.04}
{"variant": "YNPHPGFPELGYSYGYGSASSQHS", "protein stability index": 2.32}
{"variant": "YNPHPGFPELGYSYGGASASSQHS", "protein stability index": 2.73}
{"variant": "YNPHPGFPELGYSYGGCSASSQHS", "protein stability index": 3.22}
{"variant": "YNPHPGFPELGYSYGGDSASSQHS", "protein stability index": 2.72}
